From the RNAGym collection of RNA variant scans (doi:10.1073/pnas.2313332121)

B1: TPR t1 (parent)
chain: GACCAAUCUGCCCUCAGAGCUCGAGAACAUCUUCGGAUGCAGAGGAGGCAGGCUUCGGUGGCGCGAUAGCGCCAACGUCCUCAACCUCCAAUGCAUCCCACCACAUGAUGAUGCCUGAAGAGCCUUGGUUUUUUG

Variants of: B1
Experiment: polymerase ribozyme fitness, log enrichment relative to wild type (log ratio); higher = more active; in vitro selection for triplet polymerase activity
Summary of the method: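 Frozen incubation at −7 °C formed the core of a single, triplicate in vitro selection round applied to PCR-built, transcribed mutant libraries of each subunit of a heterodimeric triplet polymerase ribozyme. Extended constructs were gel-excised, captured with streptavidin beads and amplified by RT-PCR, and input and output libraries were Illumina-sequenced with a filter of ≥10 input reads and ≥1 read per output. Fitness is the logarithm of genotype enrichment relative to wild-type enrichment, with inverse-variance-weighted replicate averaging, and the logarithm is base 2.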

Variant	polymerase ribozyme fitness (log ratio)
C11U C124A	1.7
C11U G17U G48A C114G	-6.05
C11U G19A C49U C56U U59C C114U	-2.93
C11U G19C G71A U116C A119U G122A	-6.27
C11U G36U G117A C124U	-5.7
C11U G39C	-1.05
C11U G42A	-2.48
C11U G42A U96A	-3.35
C11U G42C A75G U112C A121U G127A	-0.694
C11U G42C G63C U130G	-3.61
C11U G44C G61U C104U U116C	-2.32
C11U G45A C89G A121G	0.687
C11U G47A G71C C86U	-0.929
C11U G47A U87A G93U G113C	-4.49
C11U G48A G61A C86G	-1.75
C11U G48A U59A G69U C88G G135U	-3.32
C11U G51U	-3.04
C11U G51U A119U	-3.53
C11U G52A G57U A95U	-1.32
C11U G52A U92G C102A G122U	-6.57
C11U G57U	-0.202

Variant	polymerase ribozyme fitness (log ratio)
C11U G58C G120U	0.332
C11U G60A G61U U78C C86G	-4.45
C11U G60C A84U	-0.912
C11U G61A C88G C94G U130C	-4.74
C11U G61U C76U A111C	-5.8
C11U G69U A121G	2.01
C11U G71A C98U A105U G110U G122U C124A	-7.92
C11U G71C	-0.699
C11U G113C	-2.55
C11U G120A	0.0588
C11U G120C	1.11
C11U G120U	-0.185
C11U G120U G122U	1.38
C11U G127U	-2
C11U U30A G61U	-4.45
C11U U32A A68C G69U C98A C99A U106A C115G G117C U132A	-6.55
C11U U32G U38G U54C C99G G120C	-6.93
C11U U38A G120C	0.779
C11U U38G G57U G69C A74G G110A	-7.09
C11U U54A G60A G110C A121U	-4.92
C11U U54C G63U C85A	-2.46

Variant	polymerase ribozyme fitness (log ratio)
C11U U55C A121G	1.39
C11U U78G A95C G113U C114G	-4.56
C11U U106A G110C C123U	-2.46
C11U U109G	-5.84
C11U U116G G122A C124U	0.369
C11U U131G	-1.44
C12A A18U C56U C79U C115U A118C U131C	-3.23
C12A A18U C76G G77U U96A	-4.3
C12A A26C C56G G63U C89G G107A U116C	-7.06
C12A A26G	-1.73
C12A A27G G93A	-5.16
C12A A27U G63A	-5.2
C12A A29U C56U	-3.33
C12A A29U G93U	-2.79
C12A A37C A50G C53A	-0.87
C12A A37U C114G	-3.99
C12A A41U G45A C64A U87C A100C U116C	-6.47
C12A A46U	-1.75
C12A A46U G47C A68G U78C C124G	-4.93
C12A A74C G93A C124U U132A	-1.34
C12A A74G	-0.0689

Variant	polymerase ribozyme fitness (log ratio)
C12A A74U	-0.922
C12A A84U A95C G135C	-1.09
C12A A84U U130A	-1.77
C12A A111G	0.3
C12A A121U	1.74
C12A C13A C72U U92C G117A A121U C123U	-1.56
C12A C15A C72U C79A C88A	-5.1
C12A C15U G48C U92C U96A G122A	-4.12
C12A C15U U21A G39A	-1.06
C12A C20A G61U G120A	-1.21
C12A C20U G47U	-4.43
C12A C22U C56U A83C U125A	-4.56
C12A C28G C34A C80U C123A	-6.06
C12A C28U G44A C49G C72U C86A	-4.58
C12A C28U G60A G122A U133G	-2.67
C12A C28U G63C	-2.37
C12A C40A C72A U130A	-2.02
C12A C40A C86A C101U U106G	-5.32
C12A C40U C89A U125A U130G	-5
C12A C40U C99U	-4.15
